According to patent publication US20220348635A1, “COMPOSITIONS AND METHODS FOR NEUROLOGICAL DISEASES” (Coda Biotherapeutics, Inc., priority 2019, published 2022):

Columns and labels:
Format in all cases: cell-based
[1] = YFP quench plate reader assay, response to ABT-126; conditions: LX293T YFP reporter cells
Outline: (§1)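 LX293T cells transiently transfected with engineered chimeric LGIC DNA in a YFP anion-reporter background, then equilibrated 30 min at 37 °C in ECS pH 7.2. Ligand in NaI-substituted ECS added after a 17 s baseline; YFP fluorescence read every 1.3 s for 2 min, reported as percent quench […].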

[2] = YFP quench plate reader assay, response to AZD-0328; conditions: LX293T YFP reporter cells
Outline: as §1

[3] = Rheobase shift in rat DRG neurons, TC-5619
Method: Using whole cell manual patch clamp electrophysiology in HEK293 cells and rat DRG neurons, the EC50 of the various engineered receptors disclosed herein to Ach and non-native ligands was measured. The rheobase shift was also measured in rat DRG neurons, which reflects the efficacy of the receptors. To calculate the rheobase, first, the amount of current that can produce an action potential was determined. Then the ligand was added, followed by a step wise increase in the current injected up to 700 pA. The current injected after addition of the ligand was divided by, the original current injected to obtain an action potential, to calculate the rheobase. The EC50 was calculated using the Hill equation with peak current measurements from escalating doses of ligand.

[4] = High throughput electrophysiology in HEK293T cells, RG-3487
Method: To confirm the EC50s determined by plate reader as well as develop a better understanding of maximum current flow, the engineered receptors were subjected to high throughput electrophysiology system, as described below. For HEK293T studies, cDNAs encoding ion channels were cloned into pcDNA3.1 using standard recombination techniques. HEK293T cells from Clontech (Lenti-X™ 293T Cell Line) were cultured in DMEM supplemented with 10% FBS and 1% Pen/Strep to 40-50% confluence using standard cell culture protocols, transfected with ion channel plasmids at a concentration of 18 μg per 15 cm dish using Fugene 6, and grown for an additional 24 hours. Cells were then assayed on a electrophysiological system (IonFluxHT and/or Mercury, Fluxion Biosciences) in which dose-response relationships may be assessed through a microfluidics-based platform for establishing whole cell configurations. […] Data were then analyzed off-line using custom Python scripts to convert data to .csv format, re-plot traces, and apply QC measurements to reject unstable recordings (i.e. thresholding based on access resistance and/or standard deviation in baseline, as well as artifact rejection). Peak currents were then calculated and population data were fit using a 4-parameter logistic equation as described by the Hill Equation. […]

[5] = YFP quench plate reader assay, response to RG3487; conditions: LX293T YFP reporter cells
Outline: as §1

[6] = High throughput electrophysiology in HEK293T cells, AZD-0328; conditions: HEK293T cells, held at −60 mV
Outline: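 Engineered receptors transiently expressed in HEK293T cells, recorded 24 h post-transfection by automated whole-cell patch clamp at −60 mV, CsCl intracellular, pH 7.2 extracellular buffer. Progressive agonist doses applied for 1 s; peak currents fit to a 4-parameter Hill equation for EC50.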

B1: Y115D, L131Q in SEQ ID NO: 33: CR-11 (Chemogenic receptor-11): SEQ ID NO: 33 with substitutions Y115D and L131Q (protein)
chain: MRCSPGGVWLALAASLLHVSLQGEFQRKLYKELVKNYNPLERPVANDSQPLTVYFSLSLLQIMDVDEKNQVLTTNIWLQMSWTDHYLQWNVSEYPGVKTVRFPDGQIWKPDILLDNSADERFDATFHTNVQVNSSGHCQYLPPGIFKSSCPMDLKNFPMDVQTCKLKFGSWSYGGWSLDLQMQEADISGYIPNGEWDLVGIPGKRSERFYECCKEPYPDVTFTVTMRRRMGYYLIQMYIPSLLIVILSWISFWINMDAAPARVGLGITTVLTMTTQSSGSRASLPKVSYVKAIDIWMAVCLLFVFSALLEYAAVNFVSRQHKELLRFRRKRRHHKSPMLNLFQEDEAGEGRFNFSAYGMGPACLQAKDGISVKGANNSNTTNPPPAPSKSPEEMRKLFIQRAKKIDKISRIGFPMAFLIFNMFYWIIYKIVRREDVHNQ
modifications: synthetic sequence of chimeric LGIC
[1]; 50 nM ABT-126
  percent quench of YFP fluorescence, 50 nM abt: −1.81%
[1]; 100 nM ABT-126
  percent quench of YFP fluorescence, 100 nM abt: −2.61%
[1]; 300 nM ABT-126
  percent quench of YFP fluorescence, 300 nM abt: −3.78%
[1]; 1 uM ABT-126
  percent quench of YFP fluorescence, 1 uM abt: −2.6%
[2]; 100 nM AZD-0328
  percent quench of YFP fluorescence, 100 nM azd: 12.15%
[2]; 300 nM AZD-0328
  percent quench of YFP fluorescence, 300 nM azd: 30.92%
[2]; 30 uM AZD-0328
  percent quench of YFP fluorescence, 30 uM azd: 68.65%
[3]; TC5619 @ EC90
  Rheobase Shift; Rat DRG Neurons, +TC-5619: 625 ± 35 pA
[3]; receptor-expressing rat DRG neurons, before ligand
  Rheobase Shift; Rat DRG Neurons, Baseline: 163 ± 28 pA
[4]
  fold increased potency to RG-3487 compared to wild type receptor: over 10 fold
[5]; 30 nM RG3487
  percent quench of YFP fluorescence, 30 nM fac: 41.32%
[5]; 100 nM RG3487
  percent quench of YFP fluorescence, 100 nM fac: 59.51%
[5]; 300 nM RG3487
  percent quench of YFP fluorescence, 300 nM fac: 74.86%
[5]; 10 uM RG3487
  percent quench of YFP fluorescence, 10 uM fac: 78.53%
[5]; 30 uM RG3487
  percent quench of YFP fluorescence, 30 uM fac: 84.45%
[6]
  EC50 AZD-0328: no activity
